± gives the uncertainty stated by the source.

This series can be described thus: abundance fitness (aPCA) (normalised: wild type 0, dead -1); higher = more abundant; growth selection in yeast, the domain comes from the species named. The following applies: Homo sapiens.
For the substance “NEDD4-like E3 ubiquitin-protein ligase WWP2 H465D, O00308”, the abundance fitness was -0.461 ± 0.06.

On to “NEDD4-like E3 ubiquitin-protein ligase WWP2 H465E, O00308”, for which the abundance fitness was -0.396 ± 0.062.

Turning to “NEDD4-like E3 ubiquitin-protein ligase WWP2 H465I, O00308”, the abundance fitness is -0.207 ± 0.08.

Regarding “NEDD4-like E3 ubiquitin-protein ligase WWP2 H465K, O00308”, the abundance fitness was -0.216 ± 0.064.

Consider “NEDD4-like E3 ubiquitin-protein ligase WWP2 H465L, O00308”, for which the abundance fitness is -0.315 ± 0.045.

On to “NEDD4-like E3 ubiquitin-protein ligase WWP2 H465M, O00308”, for which the abundance fitness was -0.357 ± 0.072.

On to “NEDD4-like E3 ubiquitin-protein ligase WWP2 H465N, O00308”, for which the abundance fitness is -0.208 ± 0.086.

For “NEDD4-like E3 ubiquitin-protein ligase WWP2 H465P, O00308”, the abundance fitness is -0.556 ± 0.088.

As to “NEDD4-like E3 ubiquitin-protein ligase WWP2 H465Q, O00308”, the abundance fitness was -0.332 ± 0.042.

For “NEDD4-like E3 ubiquitin-protein ligase WWP2 H465R, O00308”, the abundance fitness was -0.278 ± 0.036.

“NEDD4-like E3 ubiquitin-protein ligase WWP2 H465S, O00308”: the abundance fitness was -0.247 ± 0.034.

As for “NEDD4-like E3 ubiquitin-protein ligase WWP2 H465T, O00308”, the abundance fitness is -0.292 ± 0.061.

As for “NEDD4-like E3 ubiquitin-protein ligase WWP2 H465V, O00308”, the abundance fitness was -0.357 ± 0.05.

As for “NEDD4-like E3 ubiquitin-protein ligase WWP2 H465W, O00308”, the abundance fitness was -0.422 ± 0.042.

As to “NEDD4-like E3 ubiquitin-protein ligase WWP2 H465Y, O00308”, the abundance fitness is -0.386 ± 0.064.

Take “NEDD4-like E3 ubiquitin-protein ligase WWP2 I441A, O00308”: the abundance fitness is -0.113 ± 0.053.

Regarding “NEDD4-like E3 ubiquitin-protein ligase WWP2 I441C, O00308”, the abundance fitness was -0.166 ± 0.078.

Consider “NEDD4-like E3 ubiquitin-protein ligase WWP2 I441D, O00308”, for which the abundance fitness is -0.419 ± 0.14.

With “NEDD4-like E3 ubiquitin-protein ligase WWP2 I441F, O00308”, the abundance fitness was -0.13 ± 0.059.

For “NEDD4-like E3 ubiquitin-protein ligase WWP2 I441H, O00308”, the abundance fitness is -0.204 ± 0.065.

Substance “NEDD4-like E3 ubiquitin-protein ligase WWP2 I441K, O00308” registered an abundance fitness of 0.052 ± 0.04.

Consider “NEDD4-like E3 ubiquitin-protein ligase WWP2 I441L, O00308”, for which the abundance fitness was -0.198 ± 0.054.

Take “NEDD4-like E3 ubiquitin-protein ligase WWP2 I441N, O00308”: the abundance fitness worked out at 0.137 ± 0.071.

For “NEDD4-like E3 ubiquitin-protein ligase WWP2 I441P, O00308”, the abundance fitness was -0.503 ± 0.083.

Regarding “NEDD4-like E3 ubiquitin-protein ligase WWP2 I441Q, O00308”, the abundance fitness is -0.035 ± 0.068.

On to “NEDD4-like E3 ubiquitin-protein ligase WWP2 I441S, O00308”, for which the abundance fitness is -0.123 ± 0.044.

As for “NEDD4-like E3 ubiquitin-protein ligase WWP2 I441T, O00308”, the abundance fitness worked out at 0.009 ± 0.04.

Turning to “NEDD4-like E3 ubiquitin-protein ligase WWP2 I441V, O00308”, the abundance fitness was -0.14 ± 0.048.

Turning to “NEDD4-like E3 ubiquitin-protein ligase WWP2 I441W, O00308”, the abundance fitness was -0.297 ± 0.067.

For “NEDD4-like E3 ubiquitin-protein ligase WWP2 I441Y, O00308”, the abundance fitness is -0.33 ± 0.11.

On to “NEDD4-like E3 ubiquitin-protein ligase WWP2 K453A, O00308”, for which the abundance fitness turned out to be 0.037 ± 0.046.

Turning to “NEDD4-like E3 ubiquitin-protein ligase WWP2 K453C, O00308”, the abundance fitness was -0.226 ± 0.079.

For the substance “NEDD4-like E3 ubiquitin-protein ligase WWP2 K453D, O00308”, the abundance fitness was -0.029 ± 0.067.

In the case of “NEDD4-like E3 ubiquitin-protein ligase WWP2 K453E, O00308”, the abundance fitness is -0.23 ± 0.058.

On to “NEDD4-like E3 ubiquitin-protein ligase WWP2 K453F, O00308”, for which the abundance fitness was -0.006 ± 0.075.

With “NEDD4-like E3 ubiquitin-protein ligase WWP2 K453G, O00308”, the abundance fitness was -0.328 ± 0.052.

“NEDD4-like E3 ubiquitin-protein ligase WWP2 K453H, O00308”: the abundance fitness is -0.137 ± 0.047.

For the substance “NEDD4-like E3 ubiquitin-protein ligase WWP2 K453I, O00308”, the abundance fitness is -0.167 ± 0.053.

In turn, “NEDD4-like E3 ubiquitin-protein ligase WWP2 K453L, O00308” registered an abundance fitness of 0.034 ± 0.038.

Consider “NEDD4-like E3 ubiquitin-protein ligase WWP2 K453M, O00308”, for which the abundance fitness is -0.006 ± 0.05.

“NEDD4-like E3 ubiquitin-protein ligase WWP2 K453N, O00308”: the abundance fitness was -0.316 ± 0.063.

For the substance “NEDD4-like E3 ubiquitin-protein ligase WWP2 K453P, O00308”, the abundance fitness is -1.01 ± 0.12.

For “NEDD4-like E3 ubiquitin-protein ligase WWP2 K453R, O00308”, the abundance fitness is -0.043 ± 0.045.

As for “NEDD4-like E3 ubiquitin-protein ligase WWP2 K453S, O00308”, the abundance fitness is -0.183 ± 0.042.

Regarding “NEDD4-like E3 ubiquitin-protein ligase WWP2 K453T, O00308”, the abundance fitness was -0.128 ± 0.056.

For the substance “NEDD4-like E3 ubiquitin-protein ligase WWP2 K453V, O00308”, the abundance fitness was -0.063 ± 0.05.

With “NEDD4-like E3 ubiquitin-protein ligase WWP2 K453W, O00308”, the abundance fitness was -0.013 ± 0.059.

Turning to “NEDD4-like E3 ubiquitin-protein ligase WWP2 K453Y, O00308”, the abundance fitness is -0.153 ± 0.042.

Take “NEDD4-like E3 ubiquitin-protein ligase WWP2 K473A, O00308”: the abundance fitness is -0.111 ± 0.045.

As for “NEDD4-like E3 ubiquitin-protein ligase WWP2 K473C, O00308”, the abundance fitness is -0.003 ± 0.066.

Take “NEDD4-like E3 ubiquitin-protein ligase WWP2 K473E, O00308”: the abundance fitness is -0.059 ± 0.035.

Take “NEDD4-like E3 ubiquitin-protein ligase WWP2 K473F, O00308”: the abundance fitness stood at 0.102 ± 0.082.

Regarding “NEDD4-like E3 ubiquitin-protein ligase WWP2 K473H, O00308”, the abundance fitness is -0.1 ± 0.055.

In turn, “NEDD4-like E3 ubiquitin-protein ligase WWP2 K473I, O00308” yielded an abundance fitness of 0.028 ± 0.07.

Take “NEDD4-like E3 ubiquitin-protein ligase WWP2 K473L, O00308”: the abundance fitness is -0.165 ± 0.058.

Substance “NEDD4-like E3 ubiquitin-protein ligase WWP2 K473M, O00308” displayed an abundance fitness of 0.093 ± 0.08.

For “NEDD4-like E3 ubiquitin-protein ligase WWP2 K473N, O00308”, the abundance fitness is -0.402 ± 0.095.

With “NEDD4-like E3 ubiquitin-protein ligase WWP2 K473P, O00308”, the abundance fitness was -1.11 ± 0.12.

With “NEDD4-like E3 ubiquitin-protein ligase WWP2 K473Q, O00308”, the abundance fitness is -0.091 ± 0.082.

In the case of “NEDD4-like E3 ubiquitin-protein ligase WWP2 K473R, O00308”, the abundance fitness is -0.081 ± 0.055.

On to “NEDD4-like E3 ubiquitin-protein ligase WWP2 K473S, O00308”, for which the abundance fitness was -0.128 ± 0.055.

On to “NEDD4-like E3 ubiquitin-protein ligase WWP2 K473T, O00308”, for which the abundance fitness is -0.097 ± 0.066.

“NEDD4-like E3 ubiquitin-protein ligase WWP2 K473V, O00308” showed an abundance fitness of 0.112 ± 0.041.

For the substance “NEDD4-like E3 ubiquitin-protein ligase WWP2 K473W, O00308”, the abundance fitness is -0.026 ± 0.075.

“NEDD4-like E3 ubiquitin-protein ligase WWP2 K473Y, O00308” returned an abundance fitness of 0.087 ± 0.071.

For the substance “NEDD4-like E3 ubiquitin-protein ligase WWP2 K484A, O00308”, the abundance fitness is -0.073 ± 0.058.

As for “NEDD4-like E3 ubiquitin-protein ligase WWP2 K484C, O00308”, the abundance fitness was -0.033 ± 0.055.

Consider “NEDD4-like E3 ubiquitin-protein ligase WWP2 K484D, O00308”, for which the abundance fitness was -0.028 ± 0.073.

For the substance “NEDD4-like E3 ubiquitin-protein ligase WWP2 K484E, O00308”, the abundance fitness was -0.037 ± 0.061.

For “NEDD4-like E3 ubiquitin-protein ligase WWP2 K484F, O00308”, the abundance fitness is -0.24 ± 0.073.

Take “NEDD4-like E3 ubiquitin-protein ligase WWP2 K484H, O00308”: the abundance fitness is -0.192 ± 0.081.

On to “NEDD4-like E3 ubiquitin-protein ligase WWP2 K484I, O00308”, for which the abundance fitness is -0.157 ± 0.064.

Take “NEDD4-like E3 ubiquitin-protein ligase WWP2 K484L, O00308”: the abundance fitness is -0.064 ± 0.03.

In the case of “NEDD4-like E3 ubiquitin-protein ligase WWP2 K484M, O00308”, the abundance fitness came to 0.044 ± 0.058.

For the substance “NEDD4-like E3 ubiquitin-protein ligase WWP2 K484N, O00308”, the abundance fitness was -0.056 ± 0.053.

Regarding “NEDD4-like E3 ubiquitin-protein ligase WWP2 K484P, O00308”, the abundance fitness was -0.05 ± 0.034.

In the case of “NEDD4-like E3 ubiquitin-protein ligase WWP2 K484Q, O00308”, the abundance fitness was -0.025 ± 0.068.

For the substance “NEDD4-like E3 ubiquitin-protein ligase WWP2 K484R, O00308”, the abundance fitness is -0.062 ± 0.038.

On to “NEDD4-like E3 ubiquitin-protein ligase WWP2 K484S, O00308”, for which the abundance fitness is -0.007 ± 0.037.

These data come from the Human Domainome abundance scans (Beltran et al. 2025).
